According to patent US20200123212A1 (3M INNOVATIVE PROPERTIES, published 2020):
Where no end group is shown, it is not given here.

Key:
[1] = target: T1, Recombinant Human Epidermal Growth Factor (EGF) (human, UniProt P01133 971-1023); assay: dot blot, peptide spotted on nitrocellulose, EGF in solution, detected with anti-EGF-IgG-HRP
T1 construct: Bought reagent; also called EGF protein
Description: SEQ ID NO: 1 (1 microliter of a 10 nM solution in PBS containing 3 wt. % DMSO) and SEQ ID NO: 2 (1 microliter of a 10 nM solution in PBS containing 3 wt. % DMSO) were individually spotted at separate sites on a nitrocellulose membrane (obtained from Thermo Fisher Scientific, Waltham, Mass.) and the membrane was dried in air for about 30 minutes. The membrane was then incubated in 25 mL of blocking buffer (3 wt. % BSA in PBS) for one hour at room temperature. The membrane was washed three times (15 minutes for each wash) with 15 mL portions of fresh PBST. The washed membrane was incubated with EGF protein [10 microliters of a 100 ng/mL solution in blocking buffer (3 wt. % BSA in PBS)] with gentle agitation for one hour. The membrane was again washed three times (15 minutes for each wash) with 15 mL portions of fresh PBST. The washed membrane was incubated with anti-EGF-IgG-HRP [1:5000 dilution in 10 mL of the blocking buffer (3 wt. % BSA in PBS)] for one hour with gentle agitation. Following the incubation, the membrane was washed three times (15 minutes for each wash) with 15 mL portions of fresh PBST. The washed membrane was incubated with 10 mL of the development solution for horseradish peroxidase (TMB-Blotting Substrate Solution, Pierce-Fisher Scientific, Rockford, Ill.) with gentle agitation. The color development was stopped by adding water.

[2] = target: T2, Recombinant Human Tumor Necrosis Factor-alpha (TNF-alpha) (human, UniProt P01375 77-233); assay: SPR (Test Method A of Example 3), peptide immobilised, TNF-alpha injected
T2 construct: Bought reagent; also called TNFα
Description: (§1) The following Test Method A was used for determining the binding affinity (KD) of SEQ ID NO: 1 for EGF and TNF-[…] Binding experiments were performed using Biacore 3000 optical biosensors equipped with research-grade CM5 sensor chips (GE Healthcare Bio-Sciences Corporation). The reagents used for the amine-coupling steps [(1-ethyl-3-(3-dimethylaminopropyl)-carbodiimide (EDC); N-hydroxysuccinimide (NHS); and ethanolamine hydrochloride-NaOH (1 M, pH 8.5)] were obtained from GE Healthcare Bio-Sciences Corporation. In order to efficiently immobilize the peptide on the sensor chips, a modified version of SEQ ID NO:1 was prepared by SPPS in which a “CK” amino acid linker sequence was added to the N-terminal end of the SEQ ID NO: 1 peptide (i.e. linker modified version of SEQ ID NO: 1 for immobilization being […]). A standard coupling protocol was employed to immobilize the linker modified version of SEQ ID NO: 1 via the lysine residue. The immobilization was performed at 25° C. using HBS-EP as the running buffer. The CM-dextran surfaces of the sensor chip flow cells were activated by a seven minute injection (20 microliters/minute) of freshly prepared 1:1 50 mM NHS: 200 mM EDC. A solution of linker modified SEQ ID NO: 1 in acetic acid (20 mM, pH 5.5) was injected to target 200 response units (RU). […]

[3] = target: T1, Recombinant Human Epidermal Growth …; assay: SPR (Test Method A of Example 3), peptide immobilised, EGF injected
Description: as §1

[4] = target: T1, Recombinant Human Epidermal Growth …; assay: SPR (Biacore 3000, CM5), peptide immobilised, EGF injected at 62.5-1000 nM, 25 C, 1:1 Langmuir global fit
Description: as §1

[5] = target: T2, Recombinant Human Tumor Necrosis …; assay: SPR (Biacore 3000, CM5), peptide immobilised, TNF-alpha injected at 62.5-1000 nM, 25 C, 1:1 Langmuir global fit
Description: as §1

[6] = target: T1, Recombinant Human Epidermal Growth …; assay: dot blot, EGF spotted on nitrocellulose, biotinylated peptide in solution, detected with Streptavidin-HRP
Description: EGF (1 microliter of a 10 nM solution in PBS was spotted a nitrocellulose membrane (obtained from Thermo Fisher Scientific) and the membrane was dried in air for about 30 minutes. The membrane was then incubated in 15 mL of blocking buffer (3 wt. % BSA in PBS) for one hour at room temperature. The membrane was washed three times (15 minutes for each wash) with 15 mL portions of fresh PBST. The washed membrane was incubated with Biotinylated SEQ ID NO: 1 [10 mL of a 10 ng/mL solution in blocking buffer (3 wt. % BSA in PBS)] with gentle agitation for one hour. The membrane was again washed three times (15 minutes for each wash) with 15 mL portions of fresh PBST. The washed membrane was incubated with Streptavidin-HRP [1:5000 dilution in 10 mL of the blocking buffer (3 wt. % BSA in PBS)] for 30 minutes with gentle agitation. Following the incubation, the membrane was washed three times (15 minutes for each wash) with 15 mL portions of fresh PBST. The washed membrane was incubated with 10 mL of the development solution for horseradish peroxidase (TMB-Blotting Substrate Solution, Pierce-Fisher Scientific) with gentle agitation. The color development was stopped by adding water. A dark spot developed at the application site on the membrane indicating affinity of SEQ ID NO: 1 for EGF.

T1 sequence (P01133 971-1023 limits assumed): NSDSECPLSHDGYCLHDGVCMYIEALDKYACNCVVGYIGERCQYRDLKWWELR
T2 sequence (P01375 77-233 limits assumed): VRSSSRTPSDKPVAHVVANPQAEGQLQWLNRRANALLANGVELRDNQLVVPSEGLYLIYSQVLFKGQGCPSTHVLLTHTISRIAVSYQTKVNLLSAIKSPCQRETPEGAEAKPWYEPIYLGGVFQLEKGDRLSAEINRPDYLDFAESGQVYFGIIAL

Ac-WFEWPYWE-NH2 (Chemically synthesised (SPPS)) [peptide SEQ ID NO: 2 (WFEWPYWE)]: binds [1].

B1: linker modified version of SEQ ID NO: 2 (CKWFEWPYWE) (peptide)
peptide: CKWFEWPYWE
modifications: also: immobilised on CM5 sensor chip via Lys of linker, conjugated to iodoacetyl magnetic beads via Cys of linker
B1 was tested, and the Kd [2] was 340 µM and the Kd [3] was 0.466 µM.

CKWFEWPYWEMNVPDVWN (also: amine-coupled to CM5 sensor chip via Lys of CK linker) [linker modified version of SEQ ID NO: 1 (CKWFEWPYWEMNVPDVWN)] gave a Kd [4] of 0.087 µM and a Kd [5] of 75.1 µM.

Ac-WFEWPYWEMNVPDVWN-NH2 (Chemically synthesised (SPPS)) [peptide SEQ ID NO: 1 (WFEWPYWEMNVPDVWN)]: binds [1].

WFEWPYWEMNVPDVWN (also: biotinylated, site not given here) [Biotinylated SEQ ID NO: 1]: binds [6].
